This is an account of results in paper doi:10.1101/2024.06.07.597859 (bioRxiv, 2024).

The data set concerns the molecule itself. Briefly: cross-linking.

Values joined by “and” are separate entries in the source; they are usually repeats but may differ in a detail not shown here. Identical values can stand only once.

B1: Plasmodium falciparum tRNA-splicing endonuclease PfTSEN1 (enzyme, UniProt A0A144A1E9 1-220, looked up)
chain: MKIIYEFKKEYYEIILNENNADDNVIDLFEKNTNKCNIEIKPYDDINSDLLDFDQFKMFNIDKDDIKKKNEDKKDEDRIKYILDKESYNNSIDKLNDNSCDESCYITDDELCKQINNPFDNTYNNKFVVKYKEYFEENSFIVKKGDIYGADFLLYITEQKYAHSLYAVYIIYKHYILRDLIRILRVSHSIKKKVILILWNELNCFNISDTLVYIKSYKYK
What is called stoichiometry N is a count of units in the complex or per binding partner. For B1, the “stoichiometry N” value was 2 and 3 and 4.
